Test results taken from article PMC3183090, “A Noncoding Point Mutation of Zeb1 Causes Multiple Developmental Malformations and Obesity in Twirler Mice”.
Residue numbers refer to the chain shown, from its start.

B1: Zeb1 c.58+181A (Twirler) probe (dsDNA)
DNA 1: TGCTGGACTGGACCATTATGTCTTACCTGC
DNA 2: GCAGGTAAGACATAATGGTCCAGTCCAGCA
B2: mim-1 C-Myb site control (dsDNA)
DNA 1: GCTCTAAAAAACCGTTATAATGTACAGATATCTT
DNA 2: AAGATATCTGTACATTATAACGGTTTTTTAGAG
B3: Zeb1 c.58+181G (wild type) probe (dsDNA)
DNA 1: B1 DNA 1 with A15G
DNA 2: B1 DNA 2 with T16C

Tests used:
[1] = target: T1, C-Myb (mouse, UniProt P06876 1-636); assay: EMSA; 20 ul reactions with EMSA Accessory Kit (Novagen), 6% DNA retardation gel; buffer composition, salt, pH and temperature not stated; settings: protein: recombinant; tags: pET-41a(+) vector tags (Ni-NTA purified); blunt
T1 sequence (P06876 whole entry): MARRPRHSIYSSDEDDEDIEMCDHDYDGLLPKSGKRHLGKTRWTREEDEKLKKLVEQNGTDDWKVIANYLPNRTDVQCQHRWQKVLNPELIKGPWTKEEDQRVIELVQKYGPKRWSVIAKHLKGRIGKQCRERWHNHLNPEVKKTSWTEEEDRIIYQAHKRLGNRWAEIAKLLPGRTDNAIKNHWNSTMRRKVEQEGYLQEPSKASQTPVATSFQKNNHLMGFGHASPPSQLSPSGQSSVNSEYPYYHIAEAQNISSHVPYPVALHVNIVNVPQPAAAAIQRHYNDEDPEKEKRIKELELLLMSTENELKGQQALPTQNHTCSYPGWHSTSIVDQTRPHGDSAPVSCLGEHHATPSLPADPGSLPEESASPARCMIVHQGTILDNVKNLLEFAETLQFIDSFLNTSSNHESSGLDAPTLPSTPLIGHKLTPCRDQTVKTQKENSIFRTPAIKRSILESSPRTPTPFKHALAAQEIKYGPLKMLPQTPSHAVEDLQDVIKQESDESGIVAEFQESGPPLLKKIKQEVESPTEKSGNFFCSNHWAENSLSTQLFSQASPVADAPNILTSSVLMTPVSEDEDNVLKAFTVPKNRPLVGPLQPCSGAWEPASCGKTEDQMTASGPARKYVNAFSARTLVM

[2] = target: T1, C-Myb; assay: competition; unlabeled, 25- or 50-fold molar excess vs labeled N1; complete inhibition; 20 ul reactions with EMSA Accessory Kit (Novagen), 6% DNA retardation gel; buffer composition, salt, pH and temperature not stated; settings: protein: recombinant; tags: pET-41a(+) vector tags (Ni-NTA purified); 5' overhang 1 nt on strand 1 as printed (S6 lacks the 3' C)

| Binder | binding result [1] | binding result [2] |
| --- | --- | --- |
| B1 | no binding |  |
| B2 |  | binds |
| B3 | binds |  |
